The values below come from PMC3660254, “Control of Translation and miRNA-Dependent Repression by a Novel Poly(A) Binding Protein, hnRNP-Q”.

The data set concerns the target T1, hnRNP-Q2 (SYNCRIP, hnRNP-Q isoform 2) (mouse (cDNA from Krebs-2 cells), UniProt Q7TMK9-2 1-562).
T1 sequence: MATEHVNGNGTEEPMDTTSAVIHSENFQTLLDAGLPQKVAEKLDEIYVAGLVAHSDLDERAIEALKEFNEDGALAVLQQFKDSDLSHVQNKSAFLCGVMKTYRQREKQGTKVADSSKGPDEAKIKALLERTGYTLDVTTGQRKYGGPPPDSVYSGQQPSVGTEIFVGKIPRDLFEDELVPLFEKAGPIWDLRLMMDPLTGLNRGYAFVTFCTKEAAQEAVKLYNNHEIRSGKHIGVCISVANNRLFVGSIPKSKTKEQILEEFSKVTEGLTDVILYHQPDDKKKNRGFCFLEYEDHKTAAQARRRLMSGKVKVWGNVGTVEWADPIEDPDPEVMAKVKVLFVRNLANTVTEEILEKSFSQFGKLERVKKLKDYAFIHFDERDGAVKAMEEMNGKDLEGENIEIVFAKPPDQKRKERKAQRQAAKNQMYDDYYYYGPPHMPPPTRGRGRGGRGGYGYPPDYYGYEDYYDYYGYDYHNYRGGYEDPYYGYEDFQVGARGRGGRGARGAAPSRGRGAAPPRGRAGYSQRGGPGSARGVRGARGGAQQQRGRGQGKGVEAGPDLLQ
The experiment in a line: EMSA; apparent Kd, 2 mM Mg2+; three experiments; EMSA: 20 mM HEPES-KOH pH 7.3, ~100 mM KCl, 2 mM MgCl2, 1 mM DTT, 0.05% NP40, 5% glycerol, 0.1 mg/ml acetylated BSA (plus 2 ul protein in buffer A), 30 C 30 min, gel at 4 C; UV crosslinking in nuclease-treated RRL. Conditions: protein: recombinant; tags: C-terminal His6 (pET28a); label: 5' 32P; single strand. In general terms: Mobility shift assays separate free from complexed probe on a gel.

Consider AAAAAAAAAAAAAAAAAAAAAAAAAAAAAA (ssRNA) [oligo(A)30], for which the Kd was roughly 30 nM.
